Patent US20240270866A1 (Alector, published 2024)

T1: mouse SIRPA overexpressed on CHO cells (mouse, UniProt P97797 32-513)
T1 construct: also called CHO-muSIRPA
T1 sequence: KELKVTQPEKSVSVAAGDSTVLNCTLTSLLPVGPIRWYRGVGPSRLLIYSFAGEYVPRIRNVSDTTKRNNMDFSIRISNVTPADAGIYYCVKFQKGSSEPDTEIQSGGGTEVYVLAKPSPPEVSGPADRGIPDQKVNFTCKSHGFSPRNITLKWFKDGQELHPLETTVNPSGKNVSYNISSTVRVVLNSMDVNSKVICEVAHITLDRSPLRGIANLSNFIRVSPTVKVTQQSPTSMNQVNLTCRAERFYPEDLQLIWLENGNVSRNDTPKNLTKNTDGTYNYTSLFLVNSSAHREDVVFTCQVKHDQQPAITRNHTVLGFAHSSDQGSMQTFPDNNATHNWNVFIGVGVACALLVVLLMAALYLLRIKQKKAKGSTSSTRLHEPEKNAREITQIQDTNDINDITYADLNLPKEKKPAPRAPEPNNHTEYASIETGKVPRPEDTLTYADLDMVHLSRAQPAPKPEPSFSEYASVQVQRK

T2: Mouse SIRPA D1 Fc (mouse, UniProt P97797 32-150, limits assumed)
T2 sequence: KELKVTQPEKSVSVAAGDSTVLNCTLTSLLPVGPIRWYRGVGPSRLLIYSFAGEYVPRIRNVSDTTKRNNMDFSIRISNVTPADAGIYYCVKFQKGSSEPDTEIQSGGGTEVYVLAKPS


What was measured:
[1] = target: T1, mouse SIRPA overexpressed on CHO cells; test: flow, CHO-muSIRPA;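 as to relative MFI: antibody binding measured by flow cytometry: cells stained with 1 ug/ml test antibody for 1 h on ice, detected with PE-labelled secondary antibody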
Description: (§1) Initial characterization of anti-SIRPA antibodies of the present disclosure involved determining their ability to bind cell lines overexpressing human or mouse SIRPA. Cells were harvested, plated at 10⁶/ml in a 96 well plate, washed, and incubated in 100 ul PBS containing 1 ug/ml Mab for 1 hour in ice. Cells were then washed twice and incubated in 100 ul PBS containing 5 ug/ml PE-conjugated secondary antibody for 30 minutes in ice. Cells were washed twice in cold PBS and acquired on a BD FACS Canto. Data analysis and calculation of mean fluorescence intensity (MFI) values or % positive cells was performed with FlowJo® (TreeStar) software version 10.0.7.

[2] = target: T1, mouse SIRPA overexpressed on CHO cells; test: flow, CHO-muSIRPA; remark: listed apart in the source;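 as to relative MFI: antibody binding measured by flow cytometry: cells stained with 1 ug/ml test antibody for 1 h on ice, detected with PE-labelled secondary antibody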
Human SIRPb D1 Fc = Human SIRPb D1 Fc (human, UniProt O00241 30-148, limits assumed); test: ForteBio IgG avid;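 also: antibody IgG captured on AHQ biosensors, then 100 nM Fc-fused SIRP antigen applied for 3 min, followed by 3 min buffer dissociation, kinetics fitted to a 1:1 model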
Chain of Human SIRPb D1 Fc (O00241 30-148 limits assumed): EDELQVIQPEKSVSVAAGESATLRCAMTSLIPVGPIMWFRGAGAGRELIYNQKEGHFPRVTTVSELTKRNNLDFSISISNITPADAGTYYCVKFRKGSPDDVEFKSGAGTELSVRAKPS
Description: (§2) Briefly, ForteBio affinity measurements were performed by loading IgGs on-line onto AHQ sensors. Sensors were equilibrated off-line in assay buffer for 30 min and then monitored on-line for 60 seconds for baseline establishment. For avid binding measurement, sensors with loaded IgGs were exposed to 100 nM antigen (human SIRPA or SIRPβ1 Fc fusion) for 3 min, afterwards they were transferred to assay buffer for 3 min for off-rate measurement. Additional avid binding was determined by loading biotinylated SIRPA monomer on SA sensors and exposure to 100 nM IgG in solution. Monovalent binding measurements were obtained by loading human SIRPA or SIRPβ1 Fc fusion antigens to AHQ sensor and followed by exposure to 100 nM anti-SIRPA antibody Fab. Additional monovalent measurements were made by loading biotinylated human SIRPA or SIRPβ1 monomer to SA sensor followed by exposure to 100 nM Fab in solution. Kinetics data were fit using a 1:1 binding model in the data analysis software provided by ForteBio.

Mouse SIRPA D1 Fc = target: T2, Mouse SIRPA D1 Fc; test: ForteBio IgG avid;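 also: antibody IgG captured on AHQ biosensors, then 100 nM Fc-fused SIRP antigen applied for 3 min, followed by 3 min buffer dissociation, kinetics fitted to a 1:1 model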
Description: as §2

[3] = target: T3, human SIRPA overexpressed on CHO cells (human, UniProt P78324 31-504); test: flow, CHO-huSIRPA;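 also: Anti-SIRPA antibodies applied at 1 µg/mL for 1 h on ice, binding read by flow cytometry using a PE-labelled secondary antibody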
T3 construct: also called CHO-huSIRPA
Description: as §1

Binder	relative MFI [1]	binding result [2]	binding result (Human SIRPb D1 Fc)	binding result (Mouse SIRPA D1 Fc)	relative MFI [3]
SA-40 (antibody, V domains shown, IgG) VH: QVQLVQSGAEVKKPGASVKVSCKASGYTFTSYYMHWVRQAPGQGLEWMGIINPSGGSTTYAQKFQGRVTMTRDTSTSTVYMELSSLRSEDTAVYYCAREGLASTGVSDYYYMDVWGKGTTVTVSS VL: EIVLTQSPGTLSLSPGERATLSCRASQSVSSSYLAWYQQKPGQAPRLLIYGASSRATGIPDRFSGSGSGTDFTLTISRLEPEDFAVYYCQQLAHSPFTFGGGTKVEIK	0.446 fold over background	no binding (tested: 1 ug/ml)	no binding (tested: 100 nM)	no binding (tested: 100 nM)	0.542 fold over background
SA-52 (antibody, V domains shown, IgG) VH: QVQLVQSGAEVKKPGASVKVSCKASGYTFTNYGISWVRQAPGQGLEWMGWISAYNGNTNYAQKLQGRVTMTTDTSTSTAYMELRSLRSDDTAVYYCARGLWSEHIYWGQGTLVTVSS VL: EIVMTQSPGTLSLSPGERATLSCRASQSVSSSYLAWYQQKPGQAPRLLIYGASNRATGIPDRFSGSGSGTDFTLTISRLEPEDFAVYYCQQYVDLPLTFGGGTKVEIK	0.557 fold over background	no binding (tested: 1 ug/ml)	no binding (tested: 100 nM)	no binding (tested: 100 nM)	1.9 fold over background
SA-30 (antibody, V domains shown, IgG) VH: QVQLVESGGGVVQPGRSLRLSCAASGFTFSSYGMHWVRQAPGKGLEWVAVIWYDGSNKYYADSVKGRFTISRDNSKNTLYLQMNSLRAEDTAVYYCARDTGSATTMWLYGMDVWGKGTTVTVSS VL: not shown	0.595 fold over background	no binding (tested: 1 ug/ml)	no binding (tested: 100 nM)	no binding (tested: 100 nM)	41.2 fold over background
SA-7 (antibody, V domains shown, IgG) VH: QVQLVESGGGVVQPGRSLRLSCAASGFTFSSYGMHWVRQAPGKGLEWVALIWYDGSNKYYADSVKGRFTISRDNSKNTLYLQMNSLRAEDTAVYYCAKEGSSYADGWPYGMDVWGQGTTVTVSS VL: not shown	0.515 fold over background	no binding (tested: 1 ug/ml)	no binding (tested: 100 nM)	no binding (tested: 100 nM)	0.708 fold over background
SA-6 (antibody, V domains shown, IgG) VH: EVQLVESGGGLVQPGRSLRLSCAASGFTFDDYAMHWVRQAPGKGLEWVSGITWNSGSIGYADSVKGRFTISRDNAKNSLYLQMNSLRAEDTALYYCAKEGRYGSGITTTWGQGTLVTVSS VL: EIVMTQSPATLSLSPGERATLSCRASQSVSSYLAWYQQKPGQAPRLLIYDSSNRATGIPARFSGSGSGTDFTLTISSLEPEDFAVYYCQQDANYPYTFGGGTKVEIK	0.545 fold over background	no binding (tested: 1 ug/ml)	no binding (tested: 100 nM)	no binding (tested: 100 nM)	3.13 fold over background
SA-41 (antibody, V domains shown, IgG) VH: QVQLQESGPGLVKPSETLSLTCTVSGGSISSYYWSWIRQPPGKGLEWIGSIYYSGSTNYNPSLKSRVTISVDTSKNQFSLKLSSVTAADTAVYYCAREGVAARGYYYGMDVWGQGTTVTVSS VL: EIVMTQSPATLSVSPGERATLSCRASQSVSSSLAWYQQKPGQAPRLLIYGASTRATGIPARFSGSGSGTEFTLTISSLQSEDFAVYYCQQYITYPITFGGGTKVEIK	0.47 fold over background	no binding (tested: 1 ug/ml)	no binding (tested: 100 nM)	no binding (tested: 100 nM)	0.989 fold over background
SA-42 (antibody, V domains shown, IgG) VH: QVQLQESGPGLVKPSETLSLTCTVSGGSISSYYWSWIRQPPGKGLEWIGSIYYSGSTNYNPSLKSRVTISVDTSKNQFSLKLSSVTAADTAVYYCAREGVAARGYYYGMDVWGQGTTVTVSS VL: EIVMTQSPATLSVSPGERATLSCRASQSVSSNLAWYQQKPGQAPRLLIFGASTRATGIPARFSGSGSGTEFTLTISSLQSEDFAVYYCQQYNAYPITFGGGTKVEIK	0.443 fold over background	no binding (tested: 1 ug/ml)	no binding (tested: 100 nM)	no binding (tested: 100 nM)	1.29 fold over background

Next, values leading:

relative MFI [1]	binding result [2]	binding result (Human SIRPb D1 Fc)	binding result (Mouse SIRPA D1 Fc)	relative MFI [3]	Binder
0.726 fold over background	no binding (tested: 1 ug/ml)	no binding (tested: 100 nM)	no binding (tested: 100 nM)	2.13 fold over background	SA-53 (antibody, V domains shown, IgG) VH: QVQLQESGPGLVKPSQTLSLTCTVSGGSISSGGYYWSWIRQHPGKGLEWIGYIYYSGSTYYNPSLKSRVTISVDTSKNQFSLKLSSVTAADTAVYYCARGPLGAAGFDYWGQGTLVTVSS VL: not shown
0.56 fold over background	no binding (tested: 1 ug/ml)	no binding (tested: 100 nM)	no binding (tested: 100 nM)	2.13 fold over background	SA-18 (antibody, V domains shown, IgG) VH: EVQLVESGGGLVQPGGSLRLSCAASGFTFSSYWMSWVRQAPGKGLEWVANIKSDGSEKYYVDSVKGRFTISRDNAKNSLYLQMNSLRAEDTAVYYCARDLSYEPSYPFDIWGQGTMVTVSS VL: DIQMTQSPSSVSASVGDRVTITCRASQGISSWLAWYQQKPGKAPKLLIYAASSLQSGVPSRFSGSGSGTDFTLTISSLQPEDFATYYCQQALSFPFTFGGGTKVEIK
0.56 fold over background	no binding (tested: 1 ug/ml)	no binding (tested: 100 nM)	no binding (tested: 100 nM)	1.2 fold over background	SA-44 (antibody, V domains shown, IgG) VH: EVQLVESGGGLVQPGGSLRLSCAASGFTFSSYSMNWVRQAPGKGLEWVSYISSSSSTIYYADSVKGRFTISRDNAKNSLYLQMNSLRAEDTAVYYCAREPFYSADRFDYWGQGTLVTVSS VL: DIQMTQSPSSVSASVGDRVTITCRASQGIDSWLAWYQQKPGKAPKLLIYAASSLQSGVPSRFSGSGSGTDFTLTISSLQPEDFATYYCQQGVSLPYTFGGGTKVEIK
0.545 fold over background	no binding (tested: 1 ug/ml)	no binding (tested: 100 nM)	no binding (tested: 100 nM)	3.27 fold over background	SA-48 (antibody, V domains shown, IgG) VH: QVQLVESGGGVVQPGRSLRLSCAASGFTFSSYGMHWVRQAPGKGLEWVAVISYDGSNKYYADSVKGRFTISRDNSKNTLYLQMNSLRAEDTAVYYCARGAPIETLGVYYYGMDVWGQGTTVTVSS VL: not shown
0.518 fold over background	no binding (tested: 1 ug/ml)	no binding (tested: 100 nM)	no binding (tested: 100 nM)	5.56 fold over background	SA-50 (antibody, V domains shown, IgG) VH: EVQLVESGGGLVQPGGSLRLSCAASGFTFSSYSMNWVRQAPGKGLEWVSYISSSSSTIYYADSVKGRFTISRDNAKNSLYLQMNSLRAEDTAVYYCARGGGGYSYSPYIYGMDVWGQGTTVTVSS VL: not shown
0.512 fold over background	no binding (tested: 1 ug/ml)	no binding (tested: 100 nM)	no binding (tested: 100 nM)	14.1 fold over background	SA-45 (antibody, V domains shown, IgG) VH: QVQLVQSGAEVKKPGASVKVSCKASGYTFTSYGISWVRQAPGQGLEWMGWISAYNGNTNYAQKLQGRVTMTTDTSTSTAYMELRSLRSDDTAVYYCARESGGTGAYGMDVWGQGTTVTVSS VL: DIQMTQSPSSLSASVGDRVTITCRASQSVSSSYLAWYQQKPGQAPRLLIYGASSRATGIPDRFSGSGSGTDFTLTISRLEPEDFAVYYCQQYYDSITFGGGTKVEIK
0.464 fold over background	no binding (tested: 1 ug/ml)	no binding (tested: 100 nM)	no binding (tested: 100 nM)	1.89 fold over background	SA-57 (antibody, V domains shown, IgG) VH: QLQLQESGPGLVKPSETLSLTCTVSGGSISSSSYAWGWIRQPPGKGLEWIGSIYYSGSTYYNPSLKSRVTISVDTSKNQFSLKLSSVTAADTAVYYCARKGMDDAGMDVWGQGTTVTVSS VL: EIVLTQSPATLSLSPGERATLSCRASQSVSSYLAWYQQKPGQAPRLLIYDASNRATGIPARFSGSGSGTDFTLTISSLEPEDFAVYYCQQDSAWPFTFGGGTKVEIK
0.786 fold over background	no binding (tested: 1 ug/ml)	no binding (tested: 100 nM)	no binding (tested: 100 nM)	5.19 fold over background	SA-20 (antibody, V domains shown, IgG) VH: QVQLVESGGGVVQPGRSLRLSCAASGFTFSSYGMHWVRQAPGKGLEWVAVISYDGSNKYYADSVKGRFTISRDNSKNTLYLQMNSLRAEDTAVYYCAKEPRSYWHGYGMDVWGQGTTVTVSS VL: not shown
